Experimental data reported in article PMC4383067 (Acta Neuropathologica Communications, 2015).

Biological target: Amyloid fibrils of full-length human PrP (human, UniProt P04156 23-230)
Test: static light scattering kinetics
Conditions: both partners purified

B1: Full-length human acetylcholinesterase (dimeric, recombinant) (enzyme)
chain: EGREDAELLVTVRGGRLRGIRLKTPGGPVSAFLGIPFAEPPMGPRRFLPPEPKQPWSGVVDATTFQSVCYQYVDTLYPGFEGTEMWNPNRELSEDCLYLNVWTPYPRPTSPTPVLVWIYGGGFYSGASSLDVYDGRFLVQAERTVLVSMNYRVGAFGFLALPGSREAPGNVGLLDQRLALQWVQENVAAFGGDPTSVTLFGESAGAASVGMHLLSPPSRGLFHRAVLQSGAPNGPWATVGMGEARRRATQLAHLVGCPPGGTGGNDTELVACLRTRPAQVLVNHEWHVLPQESVFRFSFVPVVDGDFLSDTPEALINAGDFHGLQVLVGVVKDEGSYFLVYGAPGFSKDNESLISRAEFLAGVRVGVPQVSDLAAEAVVLHYTDWLHPEDPARLREALSDVVGDHNVVCPVAQLAGRLAAQGARVYAYVFEHRASTLSWPLWMGVPHGYEIEFIFGIPLDPSRNYTAEEKIFAQRLMRYWANFARTGDPNEPRDPKAPQWPPYTAGAQQYVSLDLRPLEVRRGLRAQACAFWNRFLPKLLSATDTLDEAERQWKAEFHRWSSYMVHWKNQFDHYSKQDRCSDL
notes: also called AChE; dimeric AChE
stoichiometry N: 1
